From US20190300617A1 (Amgen, published 2019)

B1: Erenumab HIC-HPLC Pre-peak Fraction F1 (antibody, human IgG2, lambda, V domains shown)
VH: QVQLVESGGGVVQPGRSLRLSCAASGFTFSSFGMHWVRQAPGKGLEWVAVISFDGSIKYSVDSVKGRFTISRDNSKNTLFLQMNSLRAEDTAVYYCARDRLNYYDSSGYYHYKYYGMAVWGQGTTVTVSS
VL: QSVLTQPPSVSAAPGQKVTISCSGSSSNIGNNYVSWYQQLPGTAPKLLIYDNNKRPSGIPDRFSGSKSGTSTTLGITGLQTGDEADYYCGTWDSRLSAVVFGGGTKLTVLG
modifications: Asp105 isomerization 0.6%; Asp105 succinimide 0.2%; Asn102 deamidation ND; Leu195/Ser196 cleavage 10.9%; further cleavage sites Leu315/Thr316, Ser197/Val198, Leu192/Tyr193, Gly108/Tyr109, Asp105/Ser106
B2: Erenumab HIC-HPLC Pre-peak Fraction F3 (antibody, human IgG2, lambda, V domains shown)
VH: B1 VH
VL: B1 VL
modifications: Asp105 isomerization (isoAsp) 19.6%; Asp105 succinimide 12.6%; Asn102 deamidation 1.2%; Leu195/Ser196 cleavage 0.5%
B3: Erenumab HIC-HPLC Post-peak Fraction F6 (antibody, human IgG2, lambda, V domains shown)
VH: B1 VH
VL: B1 VL
modifications: Asp105 isomerization (isoAsp) 13.2%; Asp105 succinimide 0.1%; Asn102 deamidation ND; Leu195/Ser196 cleavage 0.6%
B4: Erenumab HIC-HPLC Post-peak Fraction F7 (antibody, human IgG2, lambda, V domains shown)
VH: B1 VH
VL: B1 VL
modifications: Asp105 isomerization (isoAsp) 2.4%; Asp105 succinimide 0.1%; Asn102 deamidation ND; Leu195/Ser196 cleavage 1.1%
B5: Erenumab HIC-HPLC Pre-peak Fraction F2 (antibody, human IgG2, lambda, V domains shown)
VH: B1 VH
VL: B1 VL
modifications: Asp105 isomerization (isoAsp) 26.4%; Asp105 succinimide 1.4%; Asn102 deamidation 0.1%; Leu195/Ser196 cleavage 1.0%
B6: Erenumab HIC-HPLC Main Fraction F5 (antibody, human IgG2, lambda, V domains shown)
VH: B1 VH
VL: B1 VL
modifications: Asp105 isomerization ND; Asp105 succinimide 0.1%; Asn102 deamidation ND; Leu195/Ser196 cleavage 0.3%
B7: Erenumab HIC-HPLC Pre-peak Fraction F4 (antibody, human IgG2, lambda, V domains shown)
VH: B1 VH
VL: B1 VL
modifications: Asp105 isomerization (isoAsp) 5.5%; Asp105 succinimide 4.3%; Asn102 deamidation 11.6%; Leu195/Ser196 cleavage 0.4%
B8: Erenumab CEX-HPLC Basic Fraction F8 (antibody, human IgG2, lambda, V domains shown)
VH: B1 VH
VL: B1 VL
modifications: disulfide isoforms by RP-HPLC: 2.0% IgG2-B, 23.3% IgG2-A/B, 73.3% IgG2-A
B9: Erenumab CEX-HPLC Basic Fraction F7 (antibody, human IgG2, lambda, V domains shown)
VH: B1 VH
VL: B1 VL
modifications: disulfide isoforms by RP-HPLC: 3.9% IgG2-B, 28.6% IgG2-A/B, 65.4% IgG2-A
B10: Erenumab CEX-HPLC Acidic Fraction F3 (antibody, human IgG2, lambda, V domains shown)
VH: B1 VH
VL: B1 VL
modifications: disulfide isoforms by RP-HPLC: 11.2% IgG2-B, 55.1% IgG2-A/B, 32.4% IgG2-A
B11: Erenumab CEX-HPLC Basic Fraction F9 (antibody, human IgG2, lambda, V domains shown)
VH: B1 VH
VL: B1 VL
modifications: disulfide isoforms by RP-HPLC: 11.0% IgG2-B, 31.3% IgG2-A/B, 55.9% IgG2-A
B12: Erenumab CEX-HPLC Main Fraction F5 (antibody, human IgG2, lambda, V domains shown)
VH: B1 VH
VL: B1 VL
modifications: disulfide isoforms by RP-HPLC: 2.9% IgG2-B, 33.9% IgG2-A/B, 62.4% IgG2-A
B13: Erenumab CEX-HPLC Main Fraction F6 (antibody, human IgG2, lambda, V domains shown)
VH: B1 VH
VL: B1 VL
modifications: disulfide isoforms by RP-HPLC: 3.9% IgG2-B, 27.8% IgG2-A/B, 65.5% IgG2-A
B14: Erenumab CEX-HPLC Acidic Fraction F2 (antibody, human IgG2, lambda, V domains shown)
VH: B1 VH
VL: B1 VL
modifications: disulfide isoforms by RP-HPLC: 21.4% IgG2-B, 40.4% IgG2-A/B, 35.8% IgG2-A
B15: Erenumab CEX-HPLC Acidic Fraction F4 (antibody, human IgG2, lambda, V domains shown)
VH: B1 VH
VL: B1 VL
modifications: disulfide isoforms by RP-HPLC: 7.0% IgG2-B, 52.5% IgG2-A/B, 39.4% IgG2-A
B16: Erenumab SE-UHPLC Fraction HMW 1 (antibody, human IgG2, lambda, V domains shown)
VH: B1 VH
VL: B1 VL
B17: Erenumab SE-UHPLC Fraction Main (antibody, human IgG2, lambda, V domains shown)
VH: B1 VH
VL: B1 VL
B18: Erenumab SE-UHPLC Fraction HMW 2 (antibody, human IgG2, lambda, V domains shown)
VH: B1 VH
VL: B1 VL

What follows are binders tested against T1, human CGRP receptor (human, UniProt Q16602 23-461; O60894 27-148) (assay: cell-based or functional assay).
T1 sequence (Q16602 23-461, chain 1 of 2): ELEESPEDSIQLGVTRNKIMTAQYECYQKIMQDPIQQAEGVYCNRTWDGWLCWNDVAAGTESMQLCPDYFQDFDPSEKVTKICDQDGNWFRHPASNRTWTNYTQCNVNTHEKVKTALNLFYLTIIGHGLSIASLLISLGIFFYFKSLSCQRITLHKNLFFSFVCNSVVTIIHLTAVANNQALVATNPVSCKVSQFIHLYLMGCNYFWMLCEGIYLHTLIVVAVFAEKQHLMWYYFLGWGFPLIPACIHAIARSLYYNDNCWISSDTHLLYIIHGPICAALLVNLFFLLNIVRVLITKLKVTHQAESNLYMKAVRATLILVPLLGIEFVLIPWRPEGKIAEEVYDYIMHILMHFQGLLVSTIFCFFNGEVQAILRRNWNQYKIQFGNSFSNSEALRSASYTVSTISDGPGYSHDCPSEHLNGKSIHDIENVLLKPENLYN
T1 sequence (O60894 27-148, chain 2 of 2): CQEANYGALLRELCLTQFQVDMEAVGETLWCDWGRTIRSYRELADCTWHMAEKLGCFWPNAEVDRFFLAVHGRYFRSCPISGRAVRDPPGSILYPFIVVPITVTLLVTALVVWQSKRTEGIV

In order of rising “% Relative Potency by Cell-Based Bioassay” value (“% Relative Potency” below):
1. B5  24%
2. B1  33%
3. B7  34%
4. B2  35%
5. B4  68%
6. B3  77%
7. B6  107%

Molecular target: T1, human CGRP receptor
Experiment: cell-based or functional assay
Remark: another data set of the same source

In order of rising “% Relative Potency” value:
1. B14  58%
2. B10  71%
3. B15  82%
4. B13  92%
5. B9  96%
6. B11  98%
7. B12  101%
8. B8  102%

Molecular target: T1, human CGRP receptor
Experiment: cell-based or functional assay
Remark: another data set of the same source

In order of rising “% Relative Potency” value:
1. B16  42%
2. B18  62%
3. B17  97%
